Source: US20250051463A1 (AstraZeneca / MedImmune, published 2025)
Changes are numbered by the printed parent chain.

T1: human IL3Rα (CD123), sample in solution for biolayer interferometry (human, UniProt P26951 19-305, limits assumed)
T1 construct: Soluble analyte in the Octet assay; also called hIL3-Rα; hIL3Rα
T1 sequence (looked up): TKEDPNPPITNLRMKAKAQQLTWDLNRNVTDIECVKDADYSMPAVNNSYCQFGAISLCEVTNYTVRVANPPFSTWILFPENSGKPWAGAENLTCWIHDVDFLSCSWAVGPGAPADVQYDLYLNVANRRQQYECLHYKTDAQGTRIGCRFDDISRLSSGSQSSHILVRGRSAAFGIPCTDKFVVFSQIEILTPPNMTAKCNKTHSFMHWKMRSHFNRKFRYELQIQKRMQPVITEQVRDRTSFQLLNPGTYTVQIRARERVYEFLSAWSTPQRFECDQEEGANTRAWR

B1: HT38-GL-Q (antibody, V domains shown)
VH: EVQLLESGGGLVQPGGSLRLSCAASGFTFSSYAMSWVRQAPGKGLEWVSAISGGGDSTYYTDSVKGRFTISRDNSKNTLYLQMNSLRAEDTAVYYCAKDRGFYYGMDVWGQGTTVTVSS
VL: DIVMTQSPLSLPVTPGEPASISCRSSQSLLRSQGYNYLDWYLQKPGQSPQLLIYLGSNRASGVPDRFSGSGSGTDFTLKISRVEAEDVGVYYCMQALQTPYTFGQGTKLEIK
notes: member of m17
B2: HT37-GL-L (antibody, V domains shown)
VH: B1 VH with S31I, S35T, G53A, S57N, Y60N, T61A, N77I, F102Y
VL: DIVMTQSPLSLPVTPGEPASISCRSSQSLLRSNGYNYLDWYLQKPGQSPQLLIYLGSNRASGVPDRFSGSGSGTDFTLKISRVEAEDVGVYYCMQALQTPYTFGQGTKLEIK
notes: member of m17
B3: HT38-GL (antibody, V domains shown)
VH: B1 VH
VL: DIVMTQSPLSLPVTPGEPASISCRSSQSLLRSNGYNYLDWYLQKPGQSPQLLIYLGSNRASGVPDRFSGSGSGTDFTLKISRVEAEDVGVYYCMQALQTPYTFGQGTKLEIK
notes: member of m17
B4: HT37-GL (antibody, V domains shown)
VH: B1 VH with S31I, S35T, G53A, S57N, Y60N, T61A, F102Y
VL: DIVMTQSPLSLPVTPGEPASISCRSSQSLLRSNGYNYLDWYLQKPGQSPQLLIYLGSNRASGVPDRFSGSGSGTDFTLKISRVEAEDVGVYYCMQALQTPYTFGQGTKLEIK
notes: member of m17
B5: HT12-GL-SG3932 (antibody, human IgG1, kappa, V domains shown)
VH: B1 VH with S30N, S31I, S35T, A50G, G53A, T61A, F102Y
VL: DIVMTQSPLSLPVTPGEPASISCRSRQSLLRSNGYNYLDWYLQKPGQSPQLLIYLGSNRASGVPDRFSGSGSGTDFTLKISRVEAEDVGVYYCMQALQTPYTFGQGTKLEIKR
modifications: SG3932 drug-linker on Cysteine 214 (EU numbering); SG3932 drug-linker (maleimide, succinimidyl thioether) on reduced cysteines; Cysteine 220, Cysteine 226 and Cysteine 229 (EU numbering) named as conjugation sites; DAR 8
notes: also called HT12-GL ADC; CD123 ADC
B6: J13 antibody (antibody, V domains shown)
VH: B1 VH with L5V, A23V, A24V, G54S, T61A, I70F, A97T, T114M
VL: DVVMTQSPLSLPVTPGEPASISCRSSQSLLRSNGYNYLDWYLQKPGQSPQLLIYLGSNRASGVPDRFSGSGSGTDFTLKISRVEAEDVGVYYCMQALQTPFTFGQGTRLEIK
notes: also called Antibody J13
B7: HT31-GL (antibody, V domains shown)
VH: B1 VH with S31I, T61A
VL: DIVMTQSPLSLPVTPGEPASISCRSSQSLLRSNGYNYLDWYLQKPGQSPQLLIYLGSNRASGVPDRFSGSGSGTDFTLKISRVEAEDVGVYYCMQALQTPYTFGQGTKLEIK
notes: member of m17
B8: HT16-GL (antibody, V domains shown)
VH: B1 VH with S31N, S35T, S57T, T61A, F102Y
VL: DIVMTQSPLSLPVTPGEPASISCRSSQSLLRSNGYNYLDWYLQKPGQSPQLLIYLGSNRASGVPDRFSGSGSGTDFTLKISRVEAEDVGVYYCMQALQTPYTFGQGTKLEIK
notes: member of m17
B9: HT8-GL (antibody, V domains shown)
VH: B1 VH with S31I, S57T, T61A, V64M, F102Y
VL: not shown
notes: member of m17
B10: HT30-GL (antibody, V domains shown)
VH: B1 VH with S31I, S52T, G53A, S57T, T61A, D62V, F102Y
VL: not shown
notes: member of m17
B11: HT35-GL (antibody, V domains shown)
VH: B1 VH with S31H, S35T, V48I, T61A, F102Y
VL: not shown
notes: member of m17
B12: HT36-GL (antibody, V domains shown)
VH: B1 VH with S31I, S57T, T61A, I70S, Y95F
VL: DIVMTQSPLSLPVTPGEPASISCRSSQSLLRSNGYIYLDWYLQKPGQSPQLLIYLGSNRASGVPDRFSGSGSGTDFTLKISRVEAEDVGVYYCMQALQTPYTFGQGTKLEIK
notes: member of m17
B13: HT29-GL (antibody, V domains shown)
VH: B1 VH with T28A, S31H, T61A, F102Y
VL: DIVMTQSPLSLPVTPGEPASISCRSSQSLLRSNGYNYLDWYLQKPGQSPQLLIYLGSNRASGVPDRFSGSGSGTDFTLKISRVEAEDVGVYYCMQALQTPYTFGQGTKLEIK
notes: member of m17
B14: HT14-GL (antibody, V domains shown)
VH: B1 VH with S30N, S31I, S35T, A50G, T61A, I70M, F102Y
VL: DIVMTQSPLSLPVTPGEPASISCKSRQSLLRSNGYNYLDWYLQKPGQSPQLLIYLGSNRASGVPDRFSGSGSGTDFTLKISRVEAEDVGVYYCMQALQTPYTFGQGTKLEIK
notes: member of m17
B15: HT7-GL (antibody, V domains shown)
VH: B1 VH with S31H, S57R, Y59F, T61A
VL: not shown
notes: member of m17
B16: HT33-GL (antibody, V domains shown)
VH: B1 VH with S30G, S31H, S57Y, T61A, F68L, F102Y
VL: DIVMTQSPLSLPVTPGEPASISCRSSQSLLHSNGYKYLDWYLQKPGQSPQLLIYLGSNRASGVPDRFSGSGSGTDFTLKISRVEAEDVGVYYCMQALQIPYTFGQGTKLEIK
notes: member of m17
B17: HT32-GL (antibody, V domains shown)
VH: B1 VH with S57T, T61A
VL: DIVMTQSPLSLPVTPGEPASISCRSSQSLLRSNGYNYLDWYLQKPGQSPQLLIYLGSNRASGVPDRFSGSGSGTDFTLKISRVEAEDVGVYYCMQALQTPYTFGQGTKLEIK
notes: member of m17
B18: HT34-GL-L (antibody, V domains shown)
VH: B1 VH with S31H, S35T, S57T, T61A, N77T, F102Y
VL: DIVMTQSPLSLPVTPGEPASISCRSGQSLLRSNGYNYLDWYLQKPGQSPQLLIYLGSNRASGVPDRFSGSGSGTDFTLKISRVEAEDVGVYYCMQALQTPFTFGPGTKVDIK
notes: member of m17
B19: HT10-GL (antibody, V domains shown)
VH: B1 VH with S31H, S35T, V48I, T61A, F102Y, V108D
VL: not shown
notes: member of m17
B20: HT4-GL (antibody, V domains shown)
VH: B1 VH with S31I, Y60N, T61A, F102Y, D107V
VL: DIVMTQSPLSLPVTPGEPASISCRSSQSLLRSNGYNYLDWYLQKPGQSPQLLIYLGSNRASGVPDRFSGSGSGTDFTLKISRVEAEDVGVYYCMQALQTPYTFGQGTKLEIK
notes: member of m17
B21: HT6-GL (antibody, V domains shown)
VH: B1 VH with S30N, I51V, S57T, T61A, D62E, F102Y, D107A
VL: B14 VL with K24R, R26S, N36H, S61P
notes: member of m17

Biological target: T2, human CD123 (IL3Rα) on cells (human, UniProt P26951 19-378)
T2 construct: whole, on cells; also called human IL3Rα expressed on 293 cells; AD293hIL3Rα
Assay: flow cytometry on OCI-AML5 cells, geometric mean

| binding result | Binder |
| --- | --- |
| binds | B1 |
| binds | B2 |
| binds | B3 |

Biological target: T2, human CD123 (IL3Rα) on cells
Assay: flow cytometry on Mv411 cells, geometric mean

| binding result | Binder |
| --- | --- |
| binds | B4 |

Biological target: T2, human CD123 (IL3Rα) on cells
Assay: flow cytometry on THP-1 CD123 (no dox) cells, Geo MFI
Method: (§1) THP-1 cells were transfected with an IL3Rα expression construct under the control of a doxycycline inducible promoter. THP-1 cells were maintained in DMEM containing 10% heat-inactivated fetal bovine serum (FBS) and were cultured in a humidified atmosphere of 5% CO₂ and at a temperature of 37° C. […] (Dox) inducible cells were stimulated with 1 μg/ml dox overnight before use. […] On the day of plating, cells were spun down at 1500 rpm for 3 minutes, counted, and resuspended to a final concentration of 1×10⁶ cells/ml. Two hundred μl of cells were plated in wells of 96 well microtiter plates. The plates were spun down at 1500 rpm for 3 minutes and flicked to remove media. One hundred μl of FACS buffer (PBS+2% FBS) was added to each well. […] The antibody concentration started at 12 μg/ml followed by six 1:3 dilutions (no antibody control was also run). The plates were incubated at 4° C. for 30 minutes. Following incubation, the plates were washed 3 times by spinning down at 1500 rpm for 3 minutes, flicked and 100 μl of FACs buffer was added. Alexa 647 secondary antibody (goat anti-human IgG (H+L)) was added at 1:1000 dilution in 100 μl followed by 30 minute 4° C. incubation. The plates were washed as above. […] Cells were analyzed on a BD Bioscience LSRII by collecting 10,000 cells. Flow data was analyzed in FlowJo software.

| EC50 (read off the curve) | Binder |
| --- | --- |
| ~0.1 µg/mL | B5 |

Biological target: T1, human IL3Rα (CD123), sample in solution …
Assay: kinetic binding curves, antibody on the sensor, human CD123 in solution
Method: Biolayer interferometry binding experiments were performed using an Octet RED384 instrument, with all measurements made at 30° C. AHC biosensor probes were soaked in kinetics buffer (PBS pH 7.2+0.02% Tween-20, 0.1% BSA, 0.05% sodium azide) for 10 minutes, followed by baseline signal measurement in kinetics buffer for 60 seconds. […] For binding to hIL3-Rα, the antibody-loaded biosensor tips were dipped in binding buffer for 60 sec (baseline), followed by immersion in a solution containing dilutions of hIL3-Rα (10-0.16 μg/mL) for 300 sec (association), and subsequent immersion in kinetics buffer for 400 sec (dissociation). For binding to hIL5-Rα and GM-CSFRa, all steps were the same except the concentration of antigen was increased (50-1.56 μg/mL) and the dissociation step was decreased to 300 sec. The signal from a buffer only reference sample was subtracted, and all curves were fit with a 1:1 binding model to determine KD values.

| binding result | Binder |
| --- | --- |
| binds | B6 |

Biological target: T2, human CD123 (IL3Rα) on cells
Assay: flow cytometry on THP-1 CD123(+dox) cells, Geo MFI
Method: as §1

| EC50 (read off the curve) | Binder |
| --- | --- |
| ~0.3 µg/mL | B5 |

Biological target: T2, human CD123 (IL3Rα) on cells
Assay: flow cytometry on Ad293 cells expressing human IL3Ra, geometric mean

| binding result | Binder |
| --- | --- |
| binds | B7 |
| binds | B8 |
| binds | B9 |
| binds | B10 |
| binds | B11 |
| binds | B12 |
| binds | B13 |
| binds | B14 |
| binds | B15 |
| binds | B16 |
| binds | B17 |
| binds | B18 |
| binds | B19 |
| binds | B20 |
| binds | B21 |
